# Results: US12662542B2, “Agnostic anti-mullerian hormone receptor binding peptides” (OVARES D LLC, priority 2019, dated 2026)
# Square brackets hold non-standard residues; d marks the D form. Ends that are not written are not given here.
# T1: AMH-R2 (Homo sapiens, UniProt Q16671)
# T1 construct: GST
# T1 sequence (Q16671 18-573): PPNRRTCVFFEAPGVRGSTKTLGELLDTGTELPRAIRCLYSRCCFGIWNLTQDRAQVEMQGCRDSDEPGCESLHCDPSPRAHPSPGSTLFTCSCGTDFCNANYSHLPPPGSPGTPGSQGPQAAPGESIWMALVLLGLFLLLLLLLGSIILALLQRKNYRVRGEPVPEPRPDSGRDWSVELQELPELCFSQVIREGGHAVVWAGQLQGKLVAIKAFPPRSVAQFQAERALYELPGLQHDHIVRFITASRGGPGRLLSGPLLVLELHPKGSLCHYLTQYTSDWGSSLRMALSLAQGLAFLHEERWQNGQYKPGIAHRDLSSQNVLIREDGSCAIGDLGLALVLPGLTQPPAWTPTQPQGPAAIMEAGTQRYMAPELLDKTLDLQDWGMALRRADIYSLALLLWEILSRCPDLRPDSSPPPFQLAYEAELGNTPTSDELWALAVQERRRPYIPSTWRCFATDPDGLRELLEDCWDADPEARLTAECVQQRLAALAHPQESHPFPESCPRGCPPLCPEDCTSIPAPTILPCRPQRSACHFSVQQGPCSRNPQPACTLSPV
# Experiments:
# AMH-R2 = target: T1, AMH-R2; experiment: peptide microarray assay identifying AMH receptor binding peptides; conditions: microarray signal
# From the text: In view of the several actions of AMH, and because of the need for AMH receptor agonists and/or antagonist that can modify the activity of one or more of the AMH receptors, provided herein are AMH receptor binding peptides that modulate the activity of the AMH receptor, as described herein. Briefly, it was hypothesized that peptides that bind AMH receptors could be generated based on the amino acid sequence of the AMH biding site of the AMH-R2 receptor. More particularly, based on the amino acid sequence of the AMH-R2 that is responsible for binding AMH, as well as the amino acid sequences of AMH-R2 that are near the AMH binding site, a peptide microarray was used to identify candidate AMH receptor binding peptides that can activate AMH-R2 and thus produce similar effects to native AMH.
# To identify candidate AMH receptor binding peptides described herein, a custom peptide library composed of replicate copies of a 124,000 17 mer peptide microarray was synthesized (Arizona State University, Tempe, AZ) using the method described in Legutki, J. B., et al., Scalable high-density peptide arrays for comprehensive health monitoring. Nat Commun., volume 5, 4785 (2014). The slide was assembled into an Arrayit 4×24 Hybridization Cassette and each peptide microarray was blocked with 150 uL of 30% human sera in 1×PBST for 1 hour at room temperature with shaking After blocking, the slide was washed 3× with 1×PBST using a Biotek plate washer prior to addition of protein targets. Each protein sample was diluted in 30% human sera in 1×PBST and 150 uL of each sample was dispensed into the appropriate wells in the cassette and incubated for 1 hour at 37 C with rotation at 300 rpm on a ThermoMix™ 500 heater/shaker.
# After incubation, the cassette was dismantled, the slide washed 3 times in 1×PBST, rinsed three times with distilled, deionized water (ddH2O), and dried in a centrifuge for 2 minutes at 800 rpm. Secondary antibody (anti-GST, GE Healthcare™) was prepared at 10 nM in 30% human sera in 1×PBST and dispensed onto the slide. The slide was incubated for 1 hour at 37 C with rotation at 300 rpm as before. The slide was then washed 3 times in 1×PBST, rinsed 3 times with ddH2O, and dried in a centrifuge for 2 minutes at 800 rpm. Detection antibody, 10 nM Alexa Flour 647 donkey anti-goat IgG (H+L) (ThermoFisher Scientific™), was prepared in 0.75% casein in 1×PBST and dispensed onto the slide. The slide was covered and incubated for 1 hour at 37 C with rotation as before. The slide was washed 3 times in 1×PBST, rinsed 3 times with ddH2O, and dried in a centrifuge for 2 minutes at 800 rpm. The slide was scanned on an Innopsys™ Inoscan 910AL scanner and the resulting TIFF files were analyzed using the Genepix™ Pro 6.0 software. Data files were exported and analyzed using Microsoft Excel™ and JMP™ software.
# [1] = test system: A2780 (endometroid ovarian cancer) cells; experiment: MTT cell proliferation assay; assay type: cell-based; conditions: 5, 10 and 20 μg/ml, 24 hours, vs untreated control
# Method: (§1) This example describes the effect of the AMH receptor binding peptides from Example 1 on cellular proliferation, in accordance with certain example embodiments. Briefly, the first two AMH receptor binding peptides (SEQ ID NOS:1-2) from Table 1 were tested on four types of AMHR2-expressing, immortalized, chemotherapy-resistant ovarian cancer cells: SKOV-3 (ovarian serous cystadenocarcinoma), EL-1 (epithelial ovarian cancer), A2780 (endometroid ovarian cancer), and MDAH (endometroid ovarian cancer) in an MTT Assay (Trevigen™ MTT Cell Proliferation Assay).
# (§2) For each cell line, cells were seeded into Falcon tissue culture treated 96-well plates in a fixed volume of 100 mcl at a density of 8,000 cells/well. […] Each experiment was executed in triplicates. For 3+1 treatments×3 wells+10 extra=22 wells×8000 cells per well, the total number of cells needed per AMH receptor binding peptide/cell line was 176,000. The cells were spun down in a sterile 15 ml conical tube for 5 minutes at 200×g and then resuspended in 2.2 ml of media (100 ul per well×22 wells). 100 mcl of the cell-containing fluid (=8,000 cells) were placed in each well of the 96-well plate. After 24 hours the media was removed from each well and replaced with the 4 treatment media (phenol-free media). At this point, 10 extra wells with media, but no cells, were created per each cell line (10×4=40 wells). The AMH receptor binding peptides (AMHR2BP (SEQ ID NO: 1) or AMHR2BP2 (SEQ ID NO: 2)) were administered in the culture medium and the effects analyzed after 24 hours in culture as percentage reduction of cell replication using an MTT […] assay.
# [2] = test system: EL-1 (epithelial ovarian cancer) cells; experiment: MTT cell proliferation assay; assay type: cell-based; conditions: 5, 10 and 20 μg/ml, 24 hours, vs untreated control
# Method: as §1, §2
# [3] = test system: SKOV-3 (ovarian serous cystadenocarcinoma) cells; experiment: MTT cell proliferation assay; assay type: cell-based; conditions: 5, 10 and 20 μg/ml, 24 hours, vs untreated control
# Method: as §1, §2
# [4] = test system: MDAH (endometroid ovarian cancer) cells; experiment: MTT cell proliferation assay; assay type: cell-based; conditions: 5, 10 and 20 μg/ml, 24 hours, vs untreated control
# Method: as §1, §2
# luteinized GCs = conditions: rAMH group; cited from earlier work
# [5] = test system: ovarian follicles of C57BL/6J female mice; experiment: in vivo mouse ovary histology, follicle count and cell proliferation
# From the text: Knowledge of the developmental landmarks and the highly inbred conformity made C57BL/6J female mice a natural choice for this study. In this mouse strain, puberty is characterized by vaginal opening at approximately 25 days of life, estrus 3-4 days later, and subsequently by regular cycling every 5-6 days. Maturity is considered to be reached at 90 days of life (12 weeks).
# Briefly, 24 C57BL mature female mice (18 weeks old) were allocated to four (4) experimental groups: baseline group (6 mice), AMHR2BP (SEQ ID NO: 1) group (6 mice), a recombinant rAMH group (6 mice), and control group (6 mice; 21 weeks of age, that received saline). The six mice in the baseline group were euthanized at the beginning of the experiment and comprised the baseline against which to compare the 2 experimental, and the control, groups. Mice in the AMHR2BP (SEQ ID NO: 1) group received AMHR2BP (SEQ ID NO: 1) at a daily dose of 50 μg/day (BP group); the rAMH group received recombinant AMH (rAMH) at a daily dose of 1.8 μg/day (to obtain 24.0 ng/ml serum level), and the control group received normal saline.
# In order to accomplish this task, an osmotic pump was implanted intraperitoneally at time zero. […] The osmotic pump (ALZET Osmotic Pumps, model 1004, Cupertino, CA) administered AMHR2BP (SEQ ID NO: 1) and rAMH with a flow rate (QT) of 0.11 μl/h for 4 weeks, based on a mouse temperature of 36.9° C. and a tissue osmolality of 7.5 atm. The daily AMHR2BP (SEQ ID NO: 1) dose was chosen based on the results of Example 3 (above) and estimated in vitro to in vivo extrapolation (IVIVE), while the rAMH dose was determined as described in reference. Mice in the control group were treated with normal saline by using the same osmotic pump vehicle implanted intraperitoneally. All mice in the 2 experimental, and the control, groups were euthanized 3 weeks into the experiment. All mice underwent a blood draw just prior to euthanasia, and their ovaries were explanted for real-time RT-PCR and histological analyses.
# After dissection, one ovary was stored in formalin and embedded in paraffin for immunohistochemical examination of follicular development and count with hematoxylin and eosin staining, while Ki67 slides were used for examination of cell proliferation. The other ovary was frozen for mRNA analysis (see below). Five μm-thick sections were serially cut and every 5th section analyzed for follicular counts. All ovarian cortex specimens where obtained from each group, and at least three sections were analyzed in each tissue specimen. The computerized program used for image analysis, CaseCenter™ by 3DHistech Pathology Information System™ (Version 2.3; Budapest, Hungary), allowed us to examine all the sections at the same time and to accurately count all the follicles in each section without redundancy. For follicle counting, the investigators were blinded to the treatment groups. One oocyte surrounded by a monolayer of flat, or cubic, granulosa cells enclosed by a basement membrane identified a primordial (PDF) and a primary follicle (PRF), respectively. Secondary follicles (SEF) were identified with one oocyte surrounded by multiple layers of cubic granulosa cells, and tertiary follicles (TEF) by fluid accumulation amid the granulosa cells.
# [6] = mouse ovarian cortex, 3 weeks, i.p. osmotic pump, AMHR2BP 50 μg/day, rAMH 1.8 μg/day
molecule,measurement,setting,value
NGSSlQAVNrlSGVS (NGSS[dL]QAVN[dR][dL]SGVS) [SEQ ID NO: 2],Average,AMH-R2; average of Rep 1 and Rep 2,65535
same,Rep 1,AMH-R2; replicate 1,65535
same,Rep 2,AMH-R2; replicate 2,65535
same,cell proliferation,[1],reduced cellular proliferation
same,cell proliferation,[2],reduced cellular proliferation
same,cell proliferation,[3],reduced cellular proliferation
same,cell proliferation,[4],reduced cellular proliferation
"rAMH: recombinant Anti-Müllerian hormone (rAMH), comparator in the mouse study (protein, UniProt P03971 452-560, looked up) Muellerian-inhibiting factor: SAGATAADGPCALRELSVDLRAERSVLIPETYQANNCQGVCGWPQSDRNPRYGNHVVLLLKMQVRGAALARPPCCVPTAYAGKLLISLSEERISAHHVPNMVATECGCR",reduction of Ki67 and Caspase3,luteinized GCs,greater than 30%
same,PDFs compared with the control (placebo) group,[5]; control group 21 weeks' age,maintained
same,PRFs compared with the control (placebo) group,[5]; control group 21 weeks' age,low
same,SEFs compared with the control (placebo) group,[5]; control group 21 weeks' age,lower
same,TEFs compared with the control (placebo) group,[5]; control group 21 weeks' age,lower
same,Corp. Lutea/mm^3 Median,[5]; [6],7.5 /mm^3
same,PDF/mm^3 Median,[5]; [6],1182 /mm^3
same,PRF/mm^3 Median,[5]; [6],514 /mm^3
same,SEF/mm^3 Median,[5]; [6],1144 /mm^3
same,TEF/mm^3 Median,[5]; [6],871 /mm^3
